Experimental findings from paper PMC5379764, “Polynucleotide phosphorylase is implicated in homologous recombination and DNA repair in Escherichia coli” are described below.

The target of this data set is T1, PNPase wild type (Escherichia coli, UniProt P05055 1-711).
T1 sequence: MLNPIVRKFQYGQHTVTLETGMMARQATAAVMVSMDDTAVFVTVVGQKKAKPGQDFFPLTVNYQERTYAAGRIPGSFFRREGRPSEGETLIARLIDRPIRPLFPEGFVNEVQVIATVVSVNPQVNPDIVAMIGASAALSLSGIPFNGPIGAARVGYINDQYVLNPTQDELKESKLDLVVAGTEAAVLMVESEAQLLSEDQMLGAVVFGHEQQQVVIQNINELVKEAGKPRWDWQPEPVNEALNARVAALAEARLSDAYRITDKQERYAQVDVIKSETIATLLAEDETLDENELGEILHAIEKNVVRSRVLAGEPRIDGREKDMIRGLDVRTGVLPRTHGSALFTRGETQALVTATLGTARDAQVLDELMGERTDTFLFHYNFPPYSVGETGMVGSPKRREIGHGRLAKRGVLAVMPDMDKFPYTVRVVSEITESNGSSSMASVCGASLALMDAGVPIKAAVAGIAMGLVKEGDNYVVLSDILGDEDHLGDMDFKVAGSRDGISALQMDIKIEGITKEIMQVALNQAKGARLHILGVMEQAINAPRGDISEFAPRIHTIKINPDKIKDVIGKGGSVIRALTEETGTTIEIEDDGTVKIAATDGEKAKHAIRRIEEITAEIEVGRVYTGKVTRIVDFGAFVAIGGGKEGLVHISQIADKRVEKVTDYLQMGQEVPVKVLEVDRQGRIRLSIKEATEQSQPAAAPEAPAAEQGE
Kind of data set: EMSA; no divalent cation; efficiency similar to RNA01; 50 mM Tris-HCl pH 7.4, 50 mM NaCl, 0.5 mM DTT, 0.025% NP40, 10% glycerol, +/- 2 mM MgCl2 or MnCl2; 50 fmol probe in 10 µl; 20 min at 21 °C; native 5% PAGE at 4. As to conditions: protein: recombinant; tags: His-tag; chain copies: 3; label: 5'-32P; single-stranded 20-mer. Background: A gel shift assay detects complexes by their altered migration in electrophoresis.

Turning to ACTGGACAAATACTCCGACG (ssDNA) [DNA02], the binding result was “binds”.
